Data as given in PMC10441885.

Target: recombinant PsCAT1 fusion protein (His6-SUMO-PsCAT1 without the signal peptide, from pET15b-SUMO-PsCAT1) (Puccinia striiformis f. sp. tritici)
Test: SEC

Substance: recombinant PsCAT1 fusion protein (His6-SUMO-PsCAT1 without the signal peptide, from pET15b-SUMO-PsCAT1) (enzyme)
- stoichiometry N: 23
